From the DeepSol protein solubility set

assay: soluble on expression in E. coli; label from the status in PepcDB or PDB records

| Sequence | soluble on expression in E. coli |
| --- | --- |
| MSLSKPLKAIIIGAGISGMVASVRLREMGIEHTIFEKNNEFGGTWWENRYPGCGVDTPNLTYTFSFRPNDWSAFFPLRDEIENYLLETARESGLYDRVRFGTKVERAEWLADRNQWQVTVRAEDGSEEVHHADIVMSAVGILNMPVVPDIKGLSGFAGRVVHTSDWPQDIDLKGKRVAVVGNGASAMQVVPAIADQVAELTIFARSKQWAAPFPQFRKPVPNGVRYLMQVVPLYRAWVEQRLSWTFNDRVHGTLFRDPDWKEPARAVNAINDGHREFFTRYVREELGERQDLLPLVLPDYPPFAKRMLLDNGWYRTLRKPHVKLVPQRLAEVRGHTLVAQDGQEIEADVLILATGFQAANVLGSYDVIGRDGRDLHEFWEGDNAAAYLGTLVPGFPNFFILLGPNVGSGHGGSMIRNIENQAHYATRVIEALVKSGADAVEVREDVYGDYKARIDAAHEKLVWTHPGATNWYRNSRGRVVAITPWRNDAFWRMTREARPEDLSFSGAEGHHHHHH | soluble |
| MSLSKPLQVNPHKLSPVMGAHLACLGVDGVMPIIHGAQGCSNFSKVFFTRHFSEPIVSHSTAVNDITAVLDGGACVAEAIDTLAKKSPFKLAAIITTGLTETKGDDVKGAIGQLSYPALYFPTPDYEGGLEEGFALAIEVFIKERMVSVTTPDPKLALILPHASMTPLEVEKLKEFLEDFGVRALALPDLSGSLDGHLEERQGSVSKGGITLEEIEEASRAGMILSIGESTRKARQAFLAKNPGAFDLNVESLYGLRSSDALIRALMDWTGHEPSVRIKRWRARLQDMMLDSHFALGGKRVIAALENDHLLGISKILEEVGMSFELAVATTGGPAMTKISAKEAVVGDLEHLMQNIESSEGVIACERLGGFLPKETPWLVRGYPIFERIGTGLGNDILYEGGCYLLKELANLFLKEHQAHEGHHHHHH | soluble |
| MSLSKRAYFGTDGIRGQANKHPMTAEVALRVGLAAGKLFRSQDERRHLVVIGKDTRLSGYMIEPALVAGLTSVGLDVRLFGPLPTPAVAMMTRSMRADLGIMISASHNSFADNGIKLFGPDGYKLSDAQELGIEALMDQGLQEGLAAPRELGRVKRIDDAQARYVEIVKATFPRHLNLSGLRIVIDCANGAAYKVAPTALYELGAEVITLGVSPDGTNINEECGSTHPEAMAKMVREYRADIGIALDGDADRLVICDEKGVVVDGDQIMAIIAAASHKAGTLKGGGVVATVMSNLGLERQLNTMGLSLERTAVGDRYVMQRMREGGFNVGGEQSGHLILSDFSTTGDGLIAALQVLAVMVETDKPMSALGRQFEPVPQLLENVRFVGGKPLEAAAVKEAIADGEAQLNGAGRIVVRASGTEPLIRIMAEGDDPALVKKVVKSIASAVKEGHHHHHH | soluble |
| MSLSKYAVSYVYKTFADIGSYAWAKKQIEVLASKGVINGTSDTTFTPQADITRADFMILLVKALGLTAEVTSNFDDVSEKDYYYEYVGIAKELGITTGVGNNKFNPKAKITRQDMMVLTTNALRIAGKISSTGTRADVERFSDKDQIASYAVEGVATLVKEGIVVGSGDIINPRGNASRAELAAIIYKIYYKEGHHHHHH | soluble |
| MSLSNKSLTTGTAVDVLAGLPVKREASATGYSRTADFGAAWLDVDGNNCDTRNDILHRDLTDAVQRGGCKILSGTLNDKYSGESIHFVRGAKTSALVQVDHIVALKNAWVTGAQQLTQAQRVSFANDPLNLIAVDAHSNEQKSSGDAATWLPANKSSRCEYVARQISVKATYGLWVTPAEKSAMMDILADCSGQMAESSTFTEGHHHHHH | soluble |
| MSLSNQEPIANYKFNYKTTANKVMKNINLSGKTIIITGGYSGIGLEMTKQLSRAGAKIIIPARRMEVAKKNLSKIKNIDILPLDLTNPESIHQFAESFLQNNSKLDILINSAGLMYLPLKRDSRGIEYHFATNHLGHYQLTLELLPALKNAKISRVINLSSRAQQMTPLLEDWNFEKIENYNPQIGYQQSKTANVLFSIKLDELGKKYGIRSFAVHPGMIPMTNIGRQNSPITPWLRYLADYFKLIHIPVFFNALKSGFDRSKYRYLKTIAQGAATPLWASTSPDLEGKGGLYCEDLNIARLMTSEEANNFSGGLRPHAIDHNDADRLWQISKNITGLDEGHHHHHH | not soluble |
| MSLSPPKPSALAHVPGDEGWPIIGRTLAVLADPKGEVEKMARTYGPVYRSRVLGETSITLLGPEANELVLFDNTKLFSSTHGWGPILGRLFPRGLMMLDFDEHRLHRRTLSVAFKAGPMQSYLAELNAGIAHRVAEWRARPGEMLCYPAMKQLTLDLAATSFLGTAIGAETEEVNRAFIDMVAASVAPIRKPWPGTAMARGVKGRQRIVAYFAEQIPIRRAKGGDDLFSQLCRATHDDGALLSNQAIIDHMSFLMMAAHDTLTSSLTSFVAALAAHPEWQQKLREEIAGLGLKPGEPISFEQLDALPLTEMAFKEAMRLRPPVPSLPRRATRAFSFKGYTIPAGTMVAVNPLFTHHMPEIWPNPDQFDPLRFTDEASRGRHRFAWIPYGGGAHMCLGLNFAYMQAKCFAVHLLQHLDLSLPPNYQASWQMWPIPKPKDGLRVNVAPLNEGHHHHHH | soluble |
| MSLSQFAAGAGKKAGEFYTPQEVSRILAEIVAIGHQRLRNVYDPTCGSGSLLLRAASIGNAVDIYGQEKNPTTYNLARMNMLLHGIRFSNFKIENGDTLEWDAFGDTQFDAVVANPPFSAEWSAADKFNTDDRFSKAGRLAPRKTADYAFILHMIYHLNEGGTMACVAPHGVLFRGNAEGVIRRFLIEKKNYVDAIIGLPANIFYGTSIPTCILVFKKEGHHHHHH | not soluble |
| MSLSQVQVDRALAGLIVRAPLPAGWRAERMSALDVAAVAAVEQAAFAFPWSRGNFEDSLKSGHLGIVLRDGGNQVAGYLILMPVVDEMHLLNVTVAPAWQRQGLGRWLLRAAQALTLAHGFASLLLEVRPSNAGAIALYRRVGFAEIGRRKRYYPAENNTREDALVMRIACEAGGVEAAEGHHHHHH | not soluble |
| MSLSRGAGEAAYRQRLVAVGDLHGDIDNAKKTLQMARIIDDDSKWVASTDILVQTGDIVDRGAYADDIYRLMQSLRGQAASQGGKVVSILGNHEVMNAIGDWRYVTKGDIARFGGTKSRQHALSAEGWLGQEWLANYSTTALVPISPYPSSPTFSFTHGSLRPSYANLTPYPAAINDLGHSLLTKALTPPMAPPYPPNPYSGLPKGTTHEEADLYAEGGPLWWRGLAEREEAQVCEWAKNLKQKIGARRIIGGHTPNFEKIVARCNASVIIIDTGISSAYGGVLSALEIVYTLTPVDRRGRDHSQDPLLLSTSSESIAGLKGRFVEREEVHAIYEHSRKWLALEEREVVLDEGHHHHHH | not soluble |
| MSLSRILFLTDLHWDHDYLEGTDPDCADPLCCRRGSGLPPASRPGAGYWGEYSKCDLPLRTLESLLSGLGPAGPFDMVYWTGDIPAHDVWHQTRQDQLRALTTVTALVRKFLGPVPVYPAVGNHESTPVNSFPPPFIEGNHSSRWLYEAMAKAWEPWLPAEALRTLRIGGFYALSPYPGLRLISLNMNFCSRENFWLLINSTDPAGQLQWLVGELQAAEDRGDKVHIIGHIPPGHCLKSWSWNYYRIVARYENTLAAQFFGHTHVDEFEVFYDEETLSRPLAVAFLAPSATTYIGLNPGYRVYQIDGNYSGSSHVVLDHETYILNLTQANIPGEGHHHHHH | soluble |
| MSLSRQRCIIVGASHGGVNLAFALRKEGYEGRITLIDADCNLPYHRPPLSKTHLIANEPAGQLLKPEQGYQKADISLMLGVSVVDVKSKNKQVLLDDGTRHPYTQLVLATGASPITPPIPGIDSAKHLYTIRTADDAHAIATAFKQSEQKRVVVIGGGYVGLETAASLRKSGAVVTVLEREPRLLARVTAPMMSDYFYALHRQHGVEVHNDKNVSEIKTNANENSVVCSDGSEYPADIIIVGVGVRVNTALADKANLEINNGIVVNEANQTSAQDIFAIGDCCAQFNPHYQRWLRLESVQNALDQGKVAAAAICHKAFKTQPVPWFWSDQYNIKLQMVGLSQGYDDVVMRKELDKPDSFSVWYFKGNELLAVDAVNNAKAYVLGTKFINAMEQVDKNKLTDNSAPLSASIIKEFAEGHHHHHH | soluble |
| MSLSRSLDSARSFLERLEARGGREGAVLAGEFSDIQACSAAWKADGVCSTVAGSRPENVRKNRYKDVLPYDQTRVILSLLQEEGHSDYINGNFIRGVDGSLAYIATQGPLPHTLLDFWRLVWEFGVKVILMACREIENGRKRCERYWAQEQEPLQTGLFCITLIKEKWLNEDIMLRTLKVTFQKESRSVYQLQYMSWPDRGVPSSPDHMLAMVEEARRLQGSGPEPLCVHCSAGCGRTGVLCTVDYVRQLLLTQMIPPDFSLFDVVLKMRKQRPAAVQTEEQYRFLYHTVAQMFCSTLQNASEGHHHHHH | soluble |
| MSLSRVPRPHIHQRISVEDIMKGNRRTLAKAITLAESSNPADSTRLGNLLREIHQMATVRTVPRFALSGSPGSGKSSLLDTLGYYLCEKKNMHVGVLAVDPSSTITHGSILGDKTRMEKLGTHLNSYIRPSPSGGHLGGVTSRAWEALEIFEAARFDVVFVETVGVGQSETQCKDLTDMMILLVPPASGDELQGIKKGVVEVADMVVVTKNDGRRKPLVQQTMSAYARAVMYTEEKQGFEKPVIAVSAEEGTNVPELWEAMLKMWNARLESGQIAHLRRAQSTKHFYNYFEMELLAKARRMTNLEMQNMAHRVWEHEMTPREAGDIMVLRTLREHLAADAAVQHDAGKRAEGHHHHHH | soluble |
| MSLSSEQQAMIDYVLAGKDVIVDATVGSGKTTAIQRLCSIMGADHDVLYLTYSKLLKVDAQQRVRGAKVQNYHGIVYPHLLKAGIKCGISESIREFNKNFKHISRTFPSYDLLVIDEYQDINEDYAELLRNIKSVNPLMQIVMVGDLEQKVRSDTTLDPQEFAAQLCEDPVFAPFTQSFRIGEAMAAGLADAWNKPIVGANTAQQIEYRSFAEAVVLIQSTEPSKLLCLGSRNGQMSDALNVVERKSPAKFNKKTVFASIRDGDSQIAHPNDAAVFTTFDSSKGLERDTCVVFDYDEEFWDMRLGYPNVDPVVMRNVFLVAASRGKNKVVFVRSDSLQAAYEAGADWAAGLAVGVVDNNTEVAPEVDAHTPAEESKGDVGEVQSQIERMMGFIPVSVFKELPELAPSEYARPISVTEAFDFKYAENVEACFDLLDVKRLDNGKGAAIEVNRSDGLIDLSPTVGNFQEAVFFKDYNVHTALSAYPSQFAKNLKRLVKKNNSVWRNCLIVTAASTEQMRYVDQVRSSIPVAAEKALVSRLSTRLNADSRNQIPLILDGEAVQSKVVRTPMSFAGVADAVHKGVLYELKFVSELTHPMFLQLAMYLVMSGMKDGILWNTRTDEAWQVRVPDPKRFLNAVVLCVSKQDYRVGNFDLPSTGGEGHHHHHH | not soluble |
| MSLSSILECIRTVGRGERGRKPLNFDQAFRVMDEYLNGECGDDQMAMLLMLIRVQNETQQEIAGFVKAFQSRMPAIGADIDWPCYAGKREAAGQPWHLLAAKILADNGHKVLMHGYHDRQPGRLHAEDYLDKFAIKKAESAEDAKRVLETQNIVYLPLSAFAPQAETMIGWKNRYGLRTPINTVVRALNPGQATVGIRGSFHPGFQQLHAEVEYEIGQTAHAVVSFKGQSGESEYNPKVSQTVWLSQPSGVTSHYWTEQMLSEVPMPTVCPFGTEETDMNQMANTVLTTIAVVLFAEMHDREQAFERAFSYWASYCAAEGHHHHHH | soluble |
